Data as given in paper PMC10397247.

Assays:
[1] = target: T1, 4H2915-bN; assay: two-hybrid library CCNG1;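 also: natural log of median RNA to DNA barcode read ratio; higher means stronger binding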
T1 chain: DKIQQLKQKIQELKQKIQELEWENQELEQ

[2] = target: T2, 4H3057-bN; assay: two-hybrid library CCNG1;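 also: natural log of median RNA to DNA barcode read ratio; higher means stronger binding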
T2 chain: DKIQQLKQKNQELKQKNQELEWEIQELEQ

[3] = target: T3, 4H319-bN; assay: two-hybrid library CCNG1;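 also: natural log of median RNA to DNA barcode read ratio; higher means stronger binding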
T3 chain: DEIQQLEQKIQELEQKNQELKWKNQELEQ

[4] = target: T4, 4H3277-bN; assay: two-hybrid library CCNG1;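 also: natural log of median RNA to DNA barcode read ratio; higher means stronger binding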
T4 chain: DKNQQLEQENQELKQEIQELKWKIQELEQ

[5] = target: T5, 4H348-bN; assay: two-hybrid library CCNG1;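 also: natural log of median RNA to DNA barcode read ratio; higher means stronger binding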
T5 chain: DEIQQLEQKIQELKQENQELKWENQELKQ

[6] = target: T6, 4H40-bN; assay: two-hybrid library CCNG1;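 also: natural log of median RNA to DNA barcode read ratio; higher means stronger binding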
T6 chain: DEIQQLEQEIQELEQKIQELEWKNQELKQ

[7] = target: T7, 4H477-bN; assay: two-hybrid library CCNG1
T7 chain: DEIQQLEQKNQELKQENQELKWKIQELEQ

[8] = target: T8, 4H492-bN; assay: two-hybrid library CCNG1
T8 chain: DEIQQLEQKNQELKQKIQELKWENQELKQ

[9] = target: T9, 4H741-bN; assay: two-hybrid library CCNG1
T9 chain: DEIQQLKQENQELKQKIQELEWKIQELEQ

[10] = target: T10, APC2237-AA; assay: two-hybrid library CCmax
T10 chain: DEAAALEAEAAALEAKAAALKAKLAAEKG

[11] = target: T11, APC232-AA; assay: two-hybrid library CCmax; settings: mean of both orientations
T11 chain: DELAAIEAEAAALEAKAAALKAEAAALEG

[12] = target: T12, APC2405-AA; assay: two-hybrid library CCmax; settings: mean of both orientations
T12 chain: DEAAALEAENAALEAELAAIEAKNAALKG

[13] = target: T13, APC3645-AA; assay: two-hybrid library CCmax; settings: mean of both orientations
T13 chain: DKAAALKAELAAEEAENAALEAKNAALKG

[14] = target: T14, APC4011-AA; assay: two-hybrid library CCmax; settings: mean of both orientations
T14 chain: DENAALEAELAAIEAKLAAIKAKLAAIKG

[15] = target: T15, APC4264-AA; assay: two-hybrid library CCmax; settings: mean of both orientations
T15 chain: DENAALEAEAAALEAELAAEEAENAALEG

[16] = target: T16, APC4436-AA; assay: two-hybrid library CCmax; settings: mean of both orientations
T16 chain: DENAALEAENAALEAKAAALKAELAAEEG

[17] = target: T17, APC5383-AA; assay: two-hybrid library CCmax; settings: mean of both orientations
T17 chain: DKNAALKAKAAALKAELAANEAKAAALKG

[18] = target: T18, APC6108-AA; assay: two-hybrid library CCmax; settings: mean of both orientations
T18 chain: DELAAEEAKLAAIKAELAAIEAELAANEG

[19] = target: T19, APC7099-AA; assay: two-hybrid library CCmax; settings: mean of both orientations
T19 chain: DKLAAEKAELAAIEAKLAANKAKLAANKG

[20] = target: T20, APC8191-AA; assay: two-hybrid library CCmax; settings: mean of both orientations
T20 chain: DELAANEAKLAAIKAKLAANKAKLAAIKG

[21] = target: T21, APC8910-AA; assay: two-hybrid library CCmax; settings: mean of both orientations
T21 chain: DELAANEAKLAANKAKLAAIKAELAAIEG

[22] = target: T22, APC9096-AA; assay: two-hybrid library CCmax; settings: mean of both orientations
T22 chain: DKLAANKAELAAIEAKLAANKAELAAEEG

[23] = target: T23, APC9319-AA; assay: two-hybrid library CCmax; settings: mean of both orientations
T23 chain: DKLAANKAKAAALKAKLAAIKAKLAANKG

[24] = target: T24, O5; assay: two-hybrid library CCNG1
T24 chain: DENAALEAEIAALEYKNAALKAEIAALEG

[25] = target: T25, O6; assay: two-hybrid library CCNG1
T25 chain: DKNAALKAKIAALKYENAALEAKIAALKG

[26] = target: T26, O7; assay: two-hybrid library CCNG1
T26 chain: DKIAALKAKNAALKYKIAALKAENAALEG

[27] = target: T27, O8; assay: two-hybrid library CCNG1
T27 chain: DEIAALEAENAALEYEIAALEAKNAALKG

[28] = target: T28, O9; assay: two-hybrid library CCNG1
T28 chain: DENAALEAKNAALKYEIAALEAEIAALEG

DKIQQLKQKIQELKQKIQELEWENQELEQ [4H2915-bN]
interaction score [1]: 0.918
interaction score [2]: -0.568
interaction score [3]: -3.47
interaction score [4]: -1.62
interaction score [5]: -0.904
interaction score [6]: 1.52
interaction score [7]: -2.75
interaction score [8]: -1.44
interaction score [9]: -1.16

DEAAALEAEAAALEAKAAALKAKLAAEKG [APC2237-AA]
interaction score [10]: -1.33
interaction score [11]: -1.19
interaction score [12]: -1.48
interaction score [13]: -1.41
interaction score [14]: 1.54
interaction score [15]: -1.65
interaction score [16]: -2.06
interaction score [17]: -1.52
interaction score [18]: -1.71
interaction score [19]: -1.59
interaction score [20]: -1.41
interaction score [21]: -1.72
interaction score [22]: -1.63
interaction score [23]: -2.27

DENAALEAEIAALEYKNAALKAEIAALEG [O5]
interaction score [24]: -2.36
interaction score [25]: 1.32
interaction score [26]: -2.16
interaction score [27]: -2.4
interaction score [28]: -2.25
